This data set can be described thus: soluble on expression in E. coli; label from the status in PepcDB or PDB records.
Take “MAPGTAELEIDETLHLLRMVMQREFIHYLETLPGTKELFIDKCLLRPLDMIATSSDMKRHGVKRIMHFDLQKSPQVWNIEIDQRVFFLRPNVENARKIVEYVEESSENRSICVIWCNRQLEECDLAFESSGVIGHITQLSLNMCLLPLESDLFSLQHVESAQPDLFSVANMFVALQNLYGVIPTVYGLGSESKNLWNLVHALCSSNELRARPDQPISHLFLFDRQLDPVPVLLTGASYEGLLHEFFTIDCGKLAFPVDLRKQVQTGPLDFDWIEINPEEDKEAHQQNRGDTVKLDNCEDIFASIRNKHVTAALEFLHSKAKSIQKSIEKSSMIDDVADYRNFVEKDLRALKKDHKHCELHINACEMMMNKVKMEDYRTMFKLEHEMLLGTVTHEEYFDFVFERVPMRSCRDVVLSMMSLASLKLDGVPDDTYNEFVEMYLQKYGYEHMFELQNLRNSRVIYARRHIAHDRTISERARTWETLARKFRIVKGNEPMDMSNPSDMSYVFGARISPLLCKIVEDTIDHGWNQAEYERIIGKDKVLVEENTYIAADRRPDNRTRKAIMVFVNGGITYWEVAALRLLAIQKNFRILICTTHVIKKREYLEVRAKDASSVFGS”: the “soluble on expression in E. coli” value is given as “not soluble”.
Under “MAPRQLAAADLAVGQVVAQREIRLDAQAFAQFAALTGDAHPIHYDAGYVQRQGLRAPIAHGLLLVAISALGATPLSAQLHDAMVAMVGVEAVFMRPVYVDETVQCVYRVAQIEHVAKGRSKTTIAVSIHTTDAPPDAARQAHCVVHLTFLLKTHLQGLEHHHHHH” stands “not soluble”.
Under “MAPSQPTQNAQTVSSVMTETPTYTSSSRSVESTAGTIAASEEATMTLLENSSGDPGSDSGGARYSLNSLKVSEQAAANAVLKAVLNDVSYQEFADSSYLEITGTPSADGTWGISFGGPSESASVEFSDGSISFSPVDMTVPATRLPQMGAFYETLTEEQLGMLETGLAVSTVDSSQQEMLLDLVSNSIGLADTETTATAISKIRATLSETYLFGTPDGLTLALSGPHVDFEVSHQGSTAKITYRDPSTDTLTAEDRVDTASVAAAPPEVVLEHHHHHH” stands “soluble”.
Under “MAQALWTRNKSEITDEEYKEFYKHIAHDFNDPLTWSHNRVEGKQEYTSLLYIPSQAPWDMWNRDHKHGLKLYVQRVFIMDDAEQFMPNYLRFVRGLIDSSDLPLNVSREILQDSTVTRNLRNALTKRVLQMLEKLAKDDAEKYQTFWQQFGLVLKEGPAEDFANQEAIAKLLRFASTHTDSSAQTVSLEDYVSRMKEGQEKIYYITADSYAAAKSSPHLELLRKKGIEVLLLSDRIDEWMMNYLTEFDGKPFQSVSKVDESLEKLADGDLGTLVPRGSMAISDPNSSSVDKLAAALEHHHHHH” stands “soluble”; under “MAQLYYRYGTMNSGKTIEILKVAYNYEEQGKGVVIMTSALDTRDGVGYVSSRIGMKRPALAIEETTDIFGYIRDLPEKPYCVLVDEAQFLKRHHVYDLARVVDELDIPVMAFGLKNDFRNELFEGSKYLLLLADKIDEIKTICQYCKKKATMVLRTQDGLPVYDGEQIQIGGNETYISVCRKHYFAPMITSNKEQNYDN”, “not soluble”.
On to “MAQVRKAHPKDLAAIARLSHQTLFLGREGPKVFPSETLWGALFVAPYLEAGCCNLVAEEEGRVVGYILGACADRPLALAFAKRLLWALPRLLLGRFGPPLPHLRYLLRLLRYPGPKAPKDRYPAHLHIAVDPEAQGHGVGKALLAAFLKCLREKGVPGVQLATTRANRAARGLYRAMGFRVYAKRASPFWAPYLGRPLIHEVWVRDLG”, for which the “soluble on expression in E. coli” value is given as “soluble”.
For “MARAIWKGAISFGLVHIPVALNTAVRTERVDFDWLDKRSMEPVGYKRVNKVTGKEIDKDNIVKGVEFEKGRYVVISEEEIRKARPETTQTIDIFSFVEAGDIPLQHFDTPYYLTPDRRGGKVYALLRETLEKTGKVALATVVLHTRQHLALLRPLDHALVMITLRWPEEVRGLETLELDASVT”, the “soluble on expression in E. coli” value is “not soluble”.
Under “MARFSGKVALITGSSNGIGRAAAILFAQQGAKVTITGRNAERLKETRHEIKKSGIPAENILAIVADVITDEGQMRLINDTVRKFGHLDILVNNAGGALMDAQGRVGMDQDISVFDNTMQINMRSVVTLVQKAKEHLIKSKGEIINVSAMAAGHHGDPIATFYGMSKAALDQFTRSSAISLIQHGVRVNSVSPGFTKTGFGEAMGFPPIAMKKVISFYESHKECAPSGAIAQPGDIAQVILFLADRTMSSYIIGQSIIADGGSSLVMGMHAHDMLDILKA” stands “not soluble”; under “MARIAGVEIPRNKRVDVALTYIYGIGKARAKEALEKTGINPATRVKDLTEAEVVRLREYVENTWKLEGELRAEVAANIKRLMDIGCYRGLRHRRGLPVRGQRTRTNARTRKGPRKTVAGKKKAPRK”, “soluble”.
Under “MARIRARGSIPDINAYTGSNVTLKIHKDPLGPYRRITWLHTKNQKILEYNYNSTKTIFESEFKGRVYLEENNGALHISNVRKEDKGTYYMRVLRETENELKITLEVFDPV” stands “soluble”; under “MARKRIITPEKKELIRNLISEYNITSAKDLQEALKDLLGDTIQNMLEAELDEHLGYEKYESTEEAKSNYRNGYTSKTLKSSVGQVEIDIPRDRNAEFEPKIVPRYKRDISEIENKIIAMYARGMSTREINEQIQEIYGFEVSAEMVSKITDKILPEIEEWQKRPLGEVYPIVFIDAIHFSVKNDGIVGKKAIYIVLAIDIEGQKDVIGIYVGENESSKFWLSVLNDLKNRGVKDILILCADALSGIKDAINAAFPNTEYQRCIVHQIRNTLKYVSDKDRKEFARDLKRIYTAPNEKAGYDQMLEVSEKWEKKYPAAMKSWKSNWDVICPFFKYSEELRKIMYTTNTIESLNSSYRRINKSRTVFPGDQSLLKSIYLATVKITSKWTMRYKNWGLILGQLQIMFEGRI”, “not soluble”; under “MARLLEEHGFETKTNVIVQGNCVEQEIDVVAERDGERYMIECKFHNIPVYTGLKEAMYTYARFLDVEKHGFTQPWIFTNTKFSEEAKKYAGCVGIKLTGWSYPEKEGIEVLLESKGLYPITILRIDKEVLDELVRAGLVFCRDVVSAGEEKLREIGLSAKKAREVIAEAKKVIG”, “soluble”.
On to “MARMKFLCDTKRCIECNGCVTACKNENDDALEWGIQRRRVVTLNDGEPGENSISVACMHCTDAPCMAVCPADCFVHTEDGIVLHNKDLCIGCGYCLFACPFGAPQFPKQAAFGERGKMDKCTFCAGGPETEPGSEEERRKYGANRIAEGKLPMCASLCSTKALLAGDAEKISDIFRQRVVERGAKGAGWTNGEDLAYDATRS”, for which the “soluble on expression in E. coli” value is “not soluble”.
Under “MARPRKPLLSTDRIVETARALVDAEGLAAVSTRRLAAELGVSGPSLYNHFRTKDEILEAVADSVSAQVDLSMFEDGREWRTALHDWAVSYRTALRDHPNIVPVLAHGPGRRPAALHLADAVYGAMVRAGWPAAQATSIGALMRYFVMGSALGSFAGGFVDDAGAYDPADYPHLQQAHLLAEQQEKIDERAFETGLTALLDGLAQQYAQVAQGV” stands “not soluble”; under “MARQKDTFYFEGFRRSADYACQAAKLLSEVMHDFNPGQLRERMDSMHAIEKSADEVRHDMMDELVTAFITPFDREDIDELGHVLDDVTDSIEGVLNRMYYDNVTDMRDDAVQMSDMVVRATESICELVNELPRFRHSKTLRELVFAINTIETDADHLFIESMRTLHTTCTDPLQVFAWHDVYRHLEQCSDDCERVANTIDSIVMKNSLEHHHHHH”, “soluble”.
Regarding “MASAEVVSKLEAAFAKLQNASDCHSLLKKYLTKEVFDQLKGKQTKMGATLMDVIQSGVENLDSGIGVYAPDAESYTLFAALLDPIIEDYHKGFKPSDKQPPKDSGDLNTFIDVDPDKKYVISTRVRCGRSLEGYPFNPCLKKQQYEEMESRVKGQLESMSGELRGKYYPLTGMTKETQKQLIDDHFLFKEGDRFLQAAHACKFWPTGRGIYHNDAKTFLVWVNEEDHLRIISMQKGGNLKEVFGRLVTAVGVIEEKVKFSRDDRLGFLTFCPTNLGTTIRASVHIKLPKLGADRKKLEEVAAKYNLQVRGTAGEHSDSPDGVYDISNKRRLGLSEYEAVKEMQDGILELIKAEESAR”, the “soluble on expression in E. coli” value is “soluble”.
Under “MASAVQAQHNVSDVSRMNVLFLMADDMRPELGCYGVEAVKTPNMDRLASSGVLFQNAYCNVPVSGASRASLLTGVYPHYPDRFVNFSAYASKDCPEAIPLSGWFTKNGYHTVSDGKVFHHMSDHAASWSEPPYRNHPDGYDVYWAEYNKWELWMNSESGKTINPKTMRGPFCESADVPDTAYDDGKLAERAIRDLRRMKEMNKPFFLACGFWKPHLPFNAPKKYWDLYKREEIPLASNRFRPEGLPEQVRNSSEIYAYARVTDTGDADFQREVKHGYYACLSYVDAQIGKVLDALDELGLAENTIVVLLGDHGWNLGEHDFVGKHNLMDRSTHVPLIIRVPGMKKGKTRSMVEFVDLYPTLCELCQIPQPAEQLDGQSFAKVFSNLKAKTKDEVYIQWEGGDNAVDQRFSYAEWMKGDVKKASMLFDHRIDKEENKNRVNEKKYKSKVESLSSFIKVKKSSLKKLEHHHHHH” stands “not soluble”; under “MASEGGNSNGGTSGTGTKSEQDPKEGKRFFNFVFNVNKKITDETEMTQDFMNDLKHYQEFDETVTKCAGYLENVFIPYSSKGSKPEEEAFTRLATALGDFKSFVPQAYTAIFENFSTKMKAAGVSRKCHQALQAHDLRHMKKFHTESYEAFVEQRKKFDESRKKMDQAKADVRDAKTTTAIEKKAICYQLTVDDFDQKTEELIKIIEALPKVKQEYVRDIYLILSKHKQFHADMSKFFAASCVL”, “not soluble”.
Consider “MASGTASTKIVIAGGFGSGKTTFVGAVSEIMPLRTEAMVTDASAGVDMLEATPDKRSTTVAMDFGRITLGEDLVLYLFGTPGQRRFWFMWDDLVRGAIGAIVLVDCRRLQDSFAAVDFFEHRNLPFLIAINEFDSAPRYPVSAVRDALTLPAHIPVINVDARNRRSATDALIAVSEYALATLSPLEHHHHHH”, for which the “soluble on expression in E. coli” value is “not soluble”.
Under “MASISSLGVGSGLDLSSILDSLTAAQKATLTPISNQQSSFTAKLSAYGTLKSALTTFQTANTALSKADLFSATSTTSSTTAFSATTAGNAIAGKYTISVTHLAQAQTLTTRTTRDDTKTAIATSDSKLTIQQGGDKDPISIDISAANSSLSGIRDAINNAKAGVSASIINVGNGEYRLSVTSNDTGLDNAMTLSVSGDDALQSFMGYDASASSNGMEVSVAAQNAQLTVNNVAIENSSNTISDALENITLNLNDVTTGNQTLTITQDTSKAQTAIKDWVNAYNSLIDTFSSLTKYTAVDAGADSQNSSNGALLGDSTLRTIQTQLKSMLSNTVSSSNYKTLAQIGITTDPSDGKLELDADKLTAALKKDASGVGALIVGDGKKTGITTTIGSNLTSWLSTTGIIKAATDGVSKTLNKLTKDYNAASDRIDAQVARYKEQFTQLDVLMTSLNSTSSYLTQQFENNSNSK” stands “not soluble”.
Take “MASKITQPDKYSGFLNNYSDLKETTSATGKPVLRWVDPSFDQSKYDSIVWNPITYYPVPKPSTQVGQKVLDKILNYTNTEMKEAIAQRKPLVTTAGPRSLIFRGAITGVDTSKEGLQFYEVVPVALVVAGTQMATGHRTMDTRLYFEGELIDAATNKPVIKVVRQGEGKDLNNESTPMAFENIKQVIDDMATDATMFDVNKKLEHHHHHH”: the “soluble on expression in E. coli” value is “soluble”.
Under “MASKKASGTLPPQQQVVHKVIMVGTGGVGKSALTLQFMYDEFVEEYEPTKADSYRKKVVLDGEECSIDILDTAGQEDYSAIRDNYYRSGEGFICVFSILDMESFEATNEFREQILRVKNSDSSVPIVLVGNKGDMRDQRVVSAELCRQRAEQWGCHYVETSAKRRENVDKVFYDLMREMKRRKGGSQAQTGIDASASSGRKKRSGIKKHCTIL” stands “not soluble”.

Source of the values: the DeepSol protein solubility set.
